The supplement of paper PMC10567573

B1: SAT2 (parent)
chain: LTEAEGWHFFCFQGEATRKLAGK

Variants of: B1
Assay: protein stability index of a GFP-peptide fusion (GPS, HEK-293T) (PSI 1-6); higher = more stable
Conditions: c terminus: native
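Note: lentivirally expressed fusions sorted by FACS into six bins by GFP to DsRed ratio, PSI derived from sequencing read proportions per bin multiplied by bin number.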

Variant | protein stability index
E5S | 2.17
E5T | 1.94
E5V | 1.36
E5W | 2.44
E5Y | 1.97
G6A | 1.58
G6C | 1.5
G6D | 3.48
G6E | 3.1
G6F | 1.79
G6H | 2.14
G6I | 2.49
G6K | 2.15
G6M | 2.05
G6N | 2.56
G6P | 2.78
G6Q | 2.6
G6R | 3.03
G6S | 2.27
G6T | 2.03
G6V | 2.15
G6Y | 1.61
W7C | 3.87
W7D | 4.63

Variant | protein stability index
W7E | 4.9
W7F | 2.22
W7G | 3.63
W7H | 3.96
W7I | 2.63
W7K | 3.88
W7L | 3.12
W7M | 3.5
W7N | 4.35
W7P | 4.43
W7Q | 4.29
W7R | 3.72
W7S | 4.22
W7T | 4.08
W7V | 3.42
W7Y | 2.58
H8A | 2.21
H8C | 1.78
H8D | 3.44
H8E | 3.41
H8F | 1.9
H8G | 3.25
H8I | 2.19
H8K | 3.24

Variant | protein stability index
H8N | 3.91
H8P | 2.97
H8Q | 2.15
H8R | 1.54
H8T | 3.27
H8V | 1.91
F9A | 3.78
F9C | 3.12
F9D | 4.19
F9E | 4.43
F9G | 3.69
F9H | 3.48
F9I | 2.23
F9K | 4.13
F9L | 1.85
F9M | 2.51
F9N | 3.52
F9P | 4.17
F9Q | 3.63
F9R | 3.77
F9S | 3.56
F9T | 3.64
F9Y | 2.69
F10A | 3.48

Variant | protein stability index
F10C | 2.56
F10D | 4.69
F10E | 4.18
F10G | 4.09
F10H | 3.46
F10I | 2.42
F10K | 3.77
F10L | 2.68
F10M | 3.39
F10N | 3.94
F10P | 4.44
F10Q | 3.61
F10R | 3.28
F10S | 4.25
F10T | 3.99
F10V | 2.34
F10W | 1.94
F10Y | 1.92
C11A | 2.09
C11D | 3.45
C11E | 3.27
C11G | 3.13
C11H | 2.99
C11I | 1.66

Variant | protein stability index
C11K | 3.5
C11L | 2.42
C11M | 2.6
C11N | 3.04
C11P | 3.7
C11Q | 3.46
C11R | 2.33
C11S | 3.68
C11T | 2.94
C11V | 2.37
C11W | 1.57
C11Y | 2.12
F12A | 3.56
F12C | 3.39
F12D | 4.53
F12E | 3.33
F12G | 3.42
F12H | 3.95
F12I | 2.55
F12K | 4.01
F12L | 2.48
F12M | 2.5
F12N | 3.84
F12P | 3.85

Variant | protein stability index
F12Q | 4.04
F12R | 2.87
F12S | 3.73
F12T | 3.88
F12W | 2.35
F12Y | 2.48
Q13A | 2.14
Q13C | 1.48
Q13D | 3.14
Q13E | 2.89
Q13G | 1.61
Q13H | 1.56
Q13K | 2.63
Q13L | 1.67
Q13M | 1.07
Q13N | 2.72
Q13P | 2.94
Q13R | 1.93
Q13T | 1.35
Q13V | 1.9
Q13Y | 2.66
G14A | 2.48
G14C | 1.19
G14D | 3.17

Variant | protein stability index
G14E | 2.83
G14H | 1.9
G14I | 4.25
G14K | 2.23
G14L | 1.73
G14M | 1.76
G14N | 2.76
G14P | 1.83
G14Q | 1.96
G14S | 1.73
G14T | 2.1
G14V | 2.33
G14W | 2.8
G14Y | 3.67
E15A | 1.59
E15C | 2.15
E15F | 1.57
E15G | 2.09
E15H | 2.13
E15K | 3.63
E15L | 3.25
E15M | 1.57
E15N | 1.86
